T1: Invertase (yeast) (Saccharomyces cerevisiae, UniProt P00724)
T1 sequence (P00724 20-532): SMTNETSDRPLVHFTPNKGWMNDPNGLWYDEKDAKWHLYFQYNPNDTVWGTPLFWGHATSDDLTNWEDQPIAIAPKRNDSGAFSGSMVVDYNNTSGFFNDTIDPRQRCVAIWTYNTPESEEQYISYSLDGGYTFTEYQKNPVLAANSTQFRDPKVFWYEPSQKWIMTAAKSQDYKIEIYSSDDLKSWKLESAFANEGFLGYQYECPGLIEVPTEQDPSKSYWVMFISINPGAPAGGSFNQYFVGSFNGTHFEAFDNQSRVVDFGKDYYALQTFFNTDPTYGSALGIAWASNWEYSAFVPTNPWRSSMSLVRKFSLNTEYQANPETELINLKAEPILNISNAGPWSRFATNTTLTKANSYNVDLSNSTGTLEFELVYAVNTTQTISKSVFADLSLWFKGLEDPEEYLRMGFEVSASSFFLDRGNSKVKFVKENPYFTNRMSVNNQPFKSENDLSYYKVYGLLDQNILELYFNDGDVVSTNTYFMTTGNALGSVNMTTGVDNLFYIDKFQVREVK


Experiments:
Lactoferrin (bovine) = Lactoferrin (bovine) (Bos taurus, UniProt P24627); assay: detection of glycoprotein by Western blotting with biotin-labeled lectin; type: binding; parameters: key: ◯: Detected; X: Not detected; settings: (2) Lactoferrin (bovine), N-linked glycan having α1→6 L-fucose; biotin-labeled lectin 2 μg/ml
Experimental: (§1) PTL of Example 1, SRL of Example 2, AAL of Comparison Example 1, AOL of Comparison Example 2, and LCA of Comparison Example 3 all subjected to biotin-labeling.
(§2) Lectin was measured and was dissolved in 0.1 M sodium hydrogen carbonate solution (5 mg/ml). Then, a biotinylation reagent was dissolved in dimethyl sulfoxide and the resultant solution was added to lectin solution to cause reaction therebetween. Then, the reactant was […] and lyophilized, thereby obtain biotin-labeled lectin.
(§3) The solution obtained by dissolving the glycoprotein sample in 10 mM phosphate buffered saline (pH 7.4, PBS) at 2 mg/ml was dispensed to a microtube by a unit of 18 μl. 6 μl of SDS process liquid (Sample Buffer Solution (2ME−); Wako Pure Chemical Industries, Ltd.) and 1.25 μl of 2-mercaptoethanol (Bio-Rad Laboratories, Inc.) was added to each dispensed fluid and the resultant mixture was boiled for 5 minutes.
(§4) The film was immersed in 10 mM Tris buffer solution including 0.8% NaCl added with 1% BSA (pH 7.4, 1% BSA+TBS) and was shaken at a room temperature for one hour. Then, the film was cleaned three times by 10 mM Tris buffer solution (pH 7.4, TBS) including 0.8% NaCl. Then, the film was immersed in biotin-labeled lectin solution (2 μg/ml) and was shaken at a room temperature for one hour. Then, the film was cleaned three times by TBS. Then, the film was immersed in the HRP label streptavidin solution at 1 μg/ml (Vector Laboratories) and was shaken at a room temperature for 30 minutes. After the film was cleaned three times by TBS, a POD immunostain set (Wako Pure Chemical Industries, Ltd.) was used to perform a staining test. The staining test is to detect glycoprotein by the western blotting using biotin-labeled lectin. FIG. 13 to FIG. 17 are photographs showing the following glycoproteins stained by PTL (FIG. 13), SRL (FIG. 14), AAL (FIG. 15), AOL (FIG. 16), or LCA (FIG. 17).
(§5) In FIG. 13 to FIG. 17, the lanes 0 to 6 correspond to the followings. Lane 1: thyroglobulin, lane 2: lactoferrin, lane 3: immune immunoglobulin, lane 4: transferrin, lane 5: α1-acidic glycoprotein, lane 6: invertase, lane 0: bovine serum albumin (control)

Thyroglobulin (pig) = Thyroglobulin (pig) (Sus scrofa, UniProt F1RRV3); assay: as above; type: binding; parameters: key: ◯: Detected; X: Not detected; settings: (1) Thyroglobulin (pig), N-linked glycan having α1→6 L-fucose; biotin-labeled lectin 2 μg/ml
Experimental: as §1, §2, §3, §4, §5

Transferrin (human) = Transferrin (human) (Homo sapiens, UniProt P02787); assay: as above; type: binding; parameters: key: ◯: Detected; X: Not detected; settings: (4) Transferrin (human), N-linked glycan not including α1→6 L-fucose; biotin-labeled lectin 2 μg/ml
Experimental: as §1, §2, §3, §4, §5

[1] = tested on: α1-acidic glycoprotein (human); assay: as above; type: binding; parameters: key: ◯: Detected; X: Not detected; settings: (5) α1-acidic glycoprotein (human), N-linked glycan having α1→3 L-fucose; biotin-labeled lectin 2 μg/ml
Experimental: as §1, §2, §3, §4, §5

Invertase (yeast) = target: T1, Invertase (yeast); assay: as above; type: binding; parameters: key: ◯: Detected; X: Not detected; settings: (6) Invertase (yeast), High mannose-type sugar chain; biotin-labeled lectin 2 μg/ml
Experimental: as §1, §2, §3, §4, §5

[2] = tested on: Immune-globulin G (human); assay: as above; type: binding; parameters: key: ◯: Detected; X: Not detected; settings: (3) Immune-globulin G (human), N-linked glycan having α1→6 L-fucose; biotin-labeled lectin 2 μg/ml
Experimental: as §1, §2, §3, §4, §5

[3] = target: Blood serum albumin (bovine) (Bos taurus, UniProt P02769); assay: as above; type: binding; parameters: key: ◯: Detected; X: Not detected; settings: (O) Blood serum albumin (bovine), No sugar chain; biotin-labeled lectin 2 μg/ml
Experimental: as §1, §2, §3, §4, §5

pig erythrocytes = assay: hemagglutinating activity test, pig erythrocytes; type: cell-based; settings: for hemagglutinating activity, titer (1.0 mg/ml): lectin 1.0 mg/ml
Description: (§6) The sugar binding specificity of lectin also can be confirmed by using erythrocytes that can be specifically agglutinated by the lectin to investigate the sugar type that may inhibit the agglutination of the erythrocytes and the concentration thereof.
(§7) PTL and SRL were subjected to hagglutinating activity test for rabbit, equine, pig, sheep, human (A, B, O), and actinase E-treated rabbit erythrocytes.

[4] = tested on: human (A, B, O) erythrocytes; assay: hemagglutinating activity test, human (A, B, O) erythrocytes; type: cell-based; settings: for hemagglutinating activity, titer (1.0 mg/ml): lectin 1.0 mg/ml
Description: as §7

[5] = tested on: actinase E-treated rabbit erythrocytes; assay: hemagglutinating activity test, actinase E-treated rabbit erythrocytes; type: cell-based; settings: for hemagglutinating activity, titer (1.0 mg/ml): lectin 1.0 mg/ml
Description: as §6, §7

sheep erythrocytes = assay: hemagglutinating activity test, sheep erythrocytes; type: cell-based; settings: for hemagglutinating activity, titer (1.0 mg/ml): lectin 1.0 mg/ml
Description: as §6, §7

rabbit erythrocytes = assay: hemagglutinating activity test, rabbit erythrocytes; type: cell-based; settings: for hemagglutinating activity, titer (1.0 mg/ml): lectin 1.0 mg/ml
Description: as §6, §7

equine erythrocytes = assay: hemagglutinating activity test, equine erythrocytes; type: cell-based
Description: as §6, §7

Sequence of Transferrin (human) (P02787 20-698): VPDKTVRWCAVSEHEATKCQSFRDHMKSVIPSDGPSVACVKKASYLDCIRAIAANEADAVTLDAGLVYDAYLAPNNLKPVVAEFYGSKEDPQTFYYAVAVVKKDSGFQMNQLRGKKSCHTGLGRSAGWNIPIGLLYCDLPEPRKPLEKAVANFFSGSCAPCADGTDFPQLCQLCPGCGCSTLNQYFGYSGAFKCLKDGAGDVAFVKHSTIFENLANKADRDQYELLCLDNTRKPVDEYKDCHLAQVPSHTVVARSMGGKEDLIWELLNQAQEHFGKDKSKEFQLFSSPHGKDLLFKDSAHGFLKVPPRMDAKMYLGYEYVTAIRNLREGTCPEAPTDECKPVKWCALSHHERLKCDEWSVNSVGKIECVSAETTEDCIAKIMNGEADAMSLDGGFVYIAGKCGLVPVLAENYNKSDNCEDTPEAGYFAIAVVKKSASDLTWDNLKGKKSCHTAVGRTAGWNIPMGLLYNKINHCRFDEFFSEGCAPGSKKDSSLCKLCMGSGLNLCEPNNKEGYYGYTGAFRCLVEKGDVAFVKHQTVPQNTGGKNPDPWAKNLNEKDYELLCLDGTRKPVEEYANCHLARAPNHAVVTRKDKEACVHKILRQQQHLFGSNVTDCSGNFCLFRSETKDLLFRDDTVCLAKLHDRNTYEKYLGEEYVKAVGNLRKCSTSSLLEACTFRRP
Sequence of Lactoferrin (bovine) (P24627 20-708): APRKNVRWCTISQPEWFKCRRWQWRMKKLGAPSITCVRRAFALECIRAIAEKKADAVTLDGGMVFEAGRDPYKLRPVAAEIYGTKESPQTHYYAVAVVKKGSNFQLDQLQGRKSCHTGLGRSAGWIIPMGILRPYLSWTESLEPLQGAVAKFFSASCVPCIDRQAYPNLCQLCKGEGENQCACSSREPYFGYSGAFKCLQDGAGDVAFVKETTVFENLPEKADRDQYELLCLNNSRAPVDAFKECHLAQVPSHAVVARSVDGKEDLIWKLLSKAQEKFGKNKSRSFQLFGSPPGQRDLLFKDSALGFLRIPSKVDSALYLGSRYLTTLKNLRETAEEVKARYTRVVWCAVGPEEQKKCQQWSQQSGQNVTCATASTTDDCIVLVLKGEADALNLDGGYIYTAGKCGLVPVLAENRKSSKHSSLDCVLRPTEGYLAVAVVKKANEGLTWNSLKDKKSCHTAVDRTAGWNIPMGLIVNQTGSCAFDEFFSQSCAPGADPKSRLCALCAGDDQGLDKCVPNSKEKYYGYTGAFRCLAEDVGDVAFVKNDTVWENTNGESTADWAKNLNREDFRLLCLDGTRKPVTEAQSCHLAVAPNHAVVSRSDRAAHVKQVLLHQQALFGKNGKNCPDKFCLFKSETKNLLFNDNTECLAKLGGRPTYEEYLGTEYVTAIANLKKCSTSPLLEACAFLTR
Sequence of Thyroglobulin (pig) (F1RRV3 20-2692): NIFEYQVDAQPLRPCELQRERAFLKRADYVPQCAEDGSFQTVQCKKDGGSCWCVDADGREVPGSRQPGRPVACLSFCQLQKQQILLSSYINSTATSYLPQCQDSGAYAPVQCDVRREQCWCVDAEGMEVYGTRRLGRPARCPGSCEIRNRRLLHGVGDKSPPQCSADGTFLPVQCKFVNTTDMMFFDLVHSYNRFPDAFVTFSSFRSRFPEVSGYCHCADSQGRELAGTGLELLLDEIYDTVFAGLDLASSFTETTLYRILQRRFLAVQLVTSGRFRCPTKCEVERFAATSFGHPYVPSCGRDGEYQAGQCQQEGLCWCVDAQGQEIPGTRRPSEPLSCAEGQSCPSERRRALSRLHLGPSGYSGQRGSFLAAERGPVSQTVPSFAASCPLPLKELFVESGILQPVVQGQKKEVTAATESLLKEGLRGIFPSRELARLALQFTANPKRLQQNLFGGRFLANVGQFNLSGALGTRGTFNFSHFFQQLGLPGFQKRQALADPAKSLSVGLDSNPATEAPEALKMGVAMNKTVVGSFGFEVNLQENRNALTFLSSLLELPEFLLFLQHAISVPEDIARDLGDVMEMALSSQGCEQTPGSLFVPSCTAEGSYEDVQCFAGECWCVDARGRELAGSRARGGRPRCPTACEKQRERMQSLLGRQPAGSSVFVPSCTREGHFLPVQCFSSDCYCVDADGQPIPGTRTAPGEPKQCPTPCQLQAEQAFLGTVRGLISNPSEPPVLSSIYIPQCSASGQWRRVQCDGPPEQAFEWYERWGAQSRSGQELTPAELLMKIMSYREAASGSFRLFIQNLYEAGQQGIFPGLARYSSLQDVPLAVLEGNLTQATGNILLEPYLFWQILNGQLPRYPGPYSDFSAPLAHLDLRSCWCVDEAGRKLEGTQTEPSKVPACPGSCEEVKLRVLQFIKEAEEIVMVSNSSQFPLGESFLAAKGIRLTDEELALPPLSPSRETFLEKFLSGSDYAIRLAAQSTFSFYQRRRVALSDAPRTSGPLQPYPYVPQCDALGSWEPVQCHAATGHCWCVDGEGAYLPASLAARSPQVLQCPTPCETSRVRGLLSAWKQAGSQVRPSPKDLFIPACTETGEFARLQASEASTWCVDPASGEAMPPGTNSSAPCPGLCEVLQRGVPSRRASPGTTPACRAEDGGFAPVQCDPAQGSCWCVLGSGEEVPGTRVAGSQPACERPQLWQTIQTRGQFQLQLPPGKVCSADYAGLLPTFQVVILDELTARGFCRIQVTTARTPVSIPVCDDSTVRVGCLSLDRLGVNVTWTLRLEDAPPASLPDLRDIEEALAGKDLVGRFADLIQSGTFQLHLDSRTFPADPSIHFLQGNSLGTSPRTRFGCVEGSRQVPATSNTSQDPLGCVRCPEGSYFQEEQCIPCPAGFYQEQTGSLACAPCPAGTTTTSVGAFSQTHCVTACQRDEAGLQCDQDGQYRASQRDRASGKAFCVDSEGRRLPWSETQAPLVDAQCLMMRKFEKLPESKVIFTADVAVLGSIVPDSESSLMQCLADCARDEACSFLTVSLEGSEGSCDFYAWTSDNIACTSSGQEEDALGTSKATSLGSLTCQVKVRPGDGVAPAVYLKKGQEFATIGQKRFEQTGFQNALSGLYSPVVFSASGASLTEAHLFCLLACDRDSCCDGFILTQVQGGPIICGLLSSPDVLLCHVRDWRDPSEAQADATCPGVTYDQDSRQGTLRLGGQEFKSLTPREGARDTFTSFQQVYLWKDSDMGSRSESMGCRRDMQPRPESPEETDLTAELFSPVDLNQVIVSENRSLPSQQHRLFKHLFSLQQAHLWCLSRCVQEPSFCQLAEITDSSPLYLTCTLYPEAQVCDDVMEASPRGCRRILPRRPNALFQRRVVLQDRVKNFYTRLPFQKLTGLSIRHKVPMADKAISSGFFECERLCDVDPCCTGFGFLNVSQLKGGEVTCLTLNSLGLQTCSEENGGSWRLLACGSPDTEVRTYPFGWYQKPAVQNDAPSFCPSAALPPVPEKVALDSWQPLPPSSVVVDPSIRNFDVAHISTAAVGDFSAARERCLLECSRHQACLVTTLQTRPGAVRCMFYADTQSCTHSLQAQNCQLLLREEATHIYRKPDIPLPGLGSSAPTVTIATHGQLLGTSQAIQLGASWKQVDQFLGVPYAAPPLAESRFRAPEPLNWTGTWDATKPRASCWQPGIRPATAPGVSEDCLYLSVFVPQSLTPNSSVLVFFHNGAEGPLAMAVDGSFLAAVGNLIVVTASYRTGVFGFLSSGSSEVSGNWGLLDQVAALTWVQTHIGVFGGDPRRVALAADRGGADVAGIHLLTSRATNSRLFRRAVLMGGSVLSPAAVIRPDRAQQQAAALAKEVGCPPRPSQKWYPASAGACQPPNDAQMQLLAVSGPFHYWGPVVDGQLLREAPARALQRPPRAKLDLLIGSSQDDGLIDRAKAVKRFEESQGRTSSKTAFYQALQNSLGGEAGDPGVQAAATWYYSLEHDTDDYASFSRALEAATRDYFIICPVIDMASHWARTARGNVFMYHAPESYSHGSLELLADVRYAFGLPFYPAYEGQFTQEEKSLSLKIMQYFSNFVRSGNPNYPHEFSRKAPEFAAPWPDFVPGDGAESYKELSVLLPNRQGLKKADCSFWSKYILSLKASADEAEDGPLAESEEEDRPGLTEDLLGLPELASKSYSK
Sequence of Blood serum albumin (bovine) (P02769 25-607): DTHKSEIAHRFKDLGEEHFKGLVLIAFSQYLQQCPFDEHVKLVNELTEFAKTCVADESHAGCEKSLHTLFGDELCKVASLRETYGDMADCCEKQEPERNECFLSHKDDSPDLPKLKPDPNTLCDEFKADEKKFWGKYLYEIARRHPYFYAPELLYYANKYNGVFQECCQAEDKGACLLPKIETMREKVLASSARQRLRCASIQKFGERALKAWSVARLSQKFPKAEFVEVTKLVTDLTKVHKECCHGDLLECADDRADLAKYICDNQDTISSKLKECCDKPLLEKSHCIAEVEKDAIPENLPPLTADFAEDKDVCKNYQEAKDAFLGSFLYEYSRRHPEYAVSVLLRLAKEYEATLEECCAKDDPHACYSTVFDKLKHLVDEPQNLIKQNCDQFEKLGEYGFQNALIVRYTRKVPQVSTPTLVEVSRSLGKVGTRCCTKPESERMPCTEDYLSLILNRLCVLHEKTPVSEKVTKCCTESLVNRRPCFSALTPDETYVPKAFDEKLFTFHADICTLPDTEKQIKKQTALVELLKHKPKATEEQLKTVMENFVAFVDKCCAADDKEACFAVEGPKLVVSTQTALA

Molecule | detection of glycoprotein by Western blotting (Lactoferrin (bovine)) | detection of glycoprotein by Western blotting (Thyroglobulin (pig)) | detection of glycoprotein by Western blotting (Transferrin (human)) | detection of glycoprotein by Western blotting [1] | detection of glycoprotein by Western blotting (Invertase (yeast)) | detection of glycoprotein by Western blotting [2] | detection of glycoprotein by Western blotting [3] | Minimum hemagglutinating concentration (pig erythrocytes) [µg/mL] | hemagglutinating activity, titer (1.0 mg/ml) (pig erythrocytes) [titer] | Minimum hemagglutinating concentration ([4]; Human A erythrocytes) [µg/mL] | hemagglutinating activity, titer (1.0 mg/ml) ([4]; Human A erythrocytes) [titer] | Minimum hemagglutinating concentration ([4]; Human B erythrocytes) [µg/mL] | hemagglutinating activity, titer (1.0 mg/ml) ([4]; Human B erythrocytes) [titer] | Minimum hemagglutinating concentration ([4]; Human O erythrocytes) [µg/mL] | hemagglutinating activity, titer (1.0 mg/ml) ([4]; Human O erythrocytes) [titer] | Minimum hemagglutinating concentration [5] [µg/mL] | hemagglutinating activity, titer (1.0 mg/ml) [5] [titer] | Minimum hemagglutinating concentration (sheep erythrocytes) [µg/mL] | hemagglutinating activity, titer (1.0 mg/ml) (sheep erythrocytes) [titer] | Minimum hemagglutinating concentration (rabbit erythrocytes) [µg/mL] | further results
Aspergillus oryzae lectin [AOL, reference compound] | ◯ | ◯ | X | X | X | ◯ | X |  |  |  |  |  |  |  |  |  |  |  |  |  | 
Stropharia rugosoannulata lectin [SRL, novel L-fucose α1→6 specific lectin purified from the mushroom Stropharia rugosoannulata] | ◯ | ◯ | X | X | X | ◯ | X | 10.4 | 32 | >333 | <1 | >333 | <1 | >333 | <1 | 0.651 | 512 | >333 | <1 | 5.21 | hemagglutinating activity, titer (1.0 mg/ml) (rabbit erythrocytes): 64 titer; Minimum hemagglutinating concentration (equine erythrocytes): 2.61 µg/mL; hemagglutinating activity, titer (1.0 mg/ml) (equine erythrocytes; lectin 1.0 mg/ml): 128 titer
Pholiota terrestris lectin [PTL, novel L-fucose α1→6 specific lectin purified from the mushroom Pholiota terrestris] | ◯ | ◯ | X | X | X | ◯ | X | 20.8 | 16 | >333 | <1 | >333 | <1 | >333 | <1 | 0.13 | 2560 | >333 | <1 | 5.21 | hemagglutinating activity, titer (1.0 mg/ml) (rabbit erythrocytes): 64 titer
Lens culinaris agglutinin (protein) chain 1: TETTSFSITKFSPDQKNLIFQGDGYTTKGKLTLTKAVKSTVGRALYSTPIHIWDRDTGNVANFVTSFTFVIDAPSSYNVADEFTFFIAPVDTKPQTGGGYLGVFNSKEYDKTSQTVAVEFDTFYNAAWDPSNKERHIGIDVNSIKSVNTKSWNLQNGERANVVIAFNAATNVLTVTLTYP chain 2: VTSYTLNEVVPLKDVVPEWVRIGFSATTGAEFAAHEVHSWSFHSELGGTSSS | ◯ | ◯ | X | X | ◯ | ◯ | X |  |  |  |  |  |  |  |  |  |  |  |  |  | 
Aleuria aurantia lectin (protein) PTEFLYTSKIAAISWAATGGRQQRVYFQDLNGKIREAQRGGDNPWTGGSSQNVIGEAKLFSPLAAVTWKSAQGIQIRVYCVNKDNILSEFVYDGSKWITGQLGSVGVKVGSNSKLAALQWGGSESAPPNIRVYYQKSNGSGSSIHEYVWSGKWTAGASFGSTVPGTGIGATAIGPGRLRIYYQATDNKIREHCWDSNSWYVGGFSASASAGVSIAAISWGSTPNIRVYWQKGREELYEAAYGGSWNTPGQIKDASRPTPSLPDTFIAANSSGNIDISVFFQASGVSLQQWQWISGKGWSIGAVVPTGTPAGW | ◯ | ◯ | X | X | X | ◯ | X |  |  |  |  |  |  |  |  |  |  |  |  |  | 

Reference: patent publication US8461305B2, “L-fucose α1→6 specific lectin” (J-Oil Mills, Inc., priority 2008, dated 2013)
